We go through two molecules from paper PMC10397247.

Experiment [1] addresses T1, 4H72-bH.
T1 chain: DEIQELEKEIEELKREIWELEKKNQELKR
In words: two-hybrid library CCNG1.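 Note: natural log of median RNA to DNA barcode read ratio; higher means stronger binding.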

In experiment [2] the target is T2, 4H607-bH.
T2 chain: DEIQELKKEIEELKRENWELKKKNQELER
The experiment in a line: two-hybrid library CCNG1.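 Note: natural log of median RNA to DNA barcode read ratio; higher means stronger binding.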

The target in experiment [3] is T3, 4H370-bH.
T3 chain: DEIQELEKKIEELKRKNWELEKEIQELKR
The experiment in a line: two-hybrid library CCNG1.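 Note: natural log of median RNA to DNA barcode read ratio; higher means stronger binding.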

In experiment [4] the target is T4, 4H3782-bH.
T4 chain: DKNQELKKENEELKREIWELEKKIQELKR
In words: two-hybrid library CCNG1.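 Note: natural log of median RNA to DNA barcode read ratio; higher means stronger binding.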

In experiment [5] the target is T5, 4H797-bH.
T5 chain: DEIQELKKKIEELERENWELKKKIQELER
The experiment in a line: two-hybrid library CCNG1.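 Note: natural log of median RNA to DNA barcode read ratio; higher means stronger binding.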

In experiment [6] the target is T6, 4H331-bH.
T6 chain: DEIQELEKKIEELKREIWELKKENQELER
In words: two-hybrid library CCNG1.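 Note: natural log of median RNA to DNA barcode read ratio; higher means stronger binding.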

Experiment [7] concerns the target T7, 4H3189-bH.
T7 chain: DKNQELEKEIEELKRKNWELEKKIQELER
The experiment in a line: two-hybrid library CCNG1.

In experiment [8] the target is T8, 4H568-bH.
T8 chain: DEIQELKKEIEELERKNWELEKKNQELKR
The experiment in a line: two-hybrid library CCNG1.

Experiment [9] deals with T9, 4H918-bH.
T9 chain: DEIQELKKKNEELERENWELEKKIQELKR
In words: two-hybrid library CCNG1.

The target in experiment [10] is T10, 4H883-bH.
T10 chain: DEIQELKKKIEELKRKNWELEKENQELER
The experiment in a line: two-hybrid library CCNG1.

Experiment [11] addresses T11, 4H462-bH.
T11 chain: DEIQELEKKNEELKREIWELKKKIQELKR
In words: two-hybrid library CCNG1.

For experiment [12], the target named is T12, 4H3606-bH.
T12 chain: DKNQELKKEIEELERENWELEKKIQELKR
In words: two-hybrid library CCNG1.

The target in experiment [13] is T13, 4H3843-bH.
T13 chain: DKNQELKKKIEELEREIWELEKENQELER
In words: two-hybrid library CCNG1.

For experiment [14], the target named is T14, 4H953-bH.
T14 chain: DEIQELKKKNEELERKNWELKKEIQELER
The experiment in a line: two-hybrid library CCNG1.

Experiment [15] addresses T15, 4H4001-bH.
T15 chain: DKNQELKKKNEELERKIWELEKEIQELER
The experiment in a line: two-hybrid library CCNG1.

The target in experiment [16] is T16, 4H687-bH.
T16 chain: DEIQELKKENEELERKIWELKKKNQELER
In words: two-hybrid library CCNG1.

Experiment [17] addresses T17, P8mS.
T17 chain: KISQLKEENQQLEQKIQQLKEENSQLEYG
In words: two-hybrid library CC1. As to conditions: mean of both orientations.

Experiment [18] deals with T18, P6SC1.
T18 chain: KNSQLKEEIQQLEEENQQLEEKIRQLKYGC
In words: two-hybrid library CC1. As to conditions: mean of both orientations.

In experiment [19] the target is T19, P7mS.
T19 chain: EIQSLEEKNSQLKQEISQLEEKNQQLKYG
The experiment in a line: two-hybrid library CC1. As to conditions: mean of both orientations.

Experiment [20] concerns the target T20, P6.
T20 chain: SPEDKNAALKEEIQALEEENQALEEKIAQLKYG
In words: two-hybrid library CC1. As to conditions: mean of both orientations.

In experiment [21] the target is T21, P6SC2.
T21 chain: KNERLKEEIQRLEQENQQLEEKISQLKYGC
The experiment in a line: two-hybrid library CC1. As to conditions: mean of both orientations.

Experiment [22] concerns the target T22, P8.
T22 chain: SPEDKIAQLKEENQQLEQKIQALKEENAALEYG
In words: two-hybrid library CC1. To be noted: mean of both orientations.

In experiment [23] the target is T23, P9.
T23 chain: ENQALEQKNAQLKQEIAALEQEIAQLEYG
In words: two-hybrid library CC1. To be noted: mean of both orientations.

In experiment [24] the target is T24, P6mS.
T24 chain: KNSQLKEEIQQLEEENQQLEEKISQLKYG
The experiment in a line: two-hybrid library CC1. To be noted: mean of both orientations.

The target of experiment [25] is T25, P7.
T25 chain: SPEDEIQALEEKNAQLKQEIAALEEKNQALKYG
In words: two-hybrid library CC1. To be noted: mean of both orientations.

The target of experiment [26] is T26, P5mS.
T26 chain: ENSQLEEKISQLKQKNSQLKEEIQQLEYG
The experiment in a line: two-hybrid library CC1.

Take DKNQELEKEIEELKRKNWELEKKIQELER [4H3189-bH]: the interaction score was -0.107 in experiment [1]; -2.19 in [2]; -0.165 in experiment [3]; -0.496 in [4]; -0.148 in experiment [5]; -0.227 in experiment [6]. The interaction score in [7] is 0.907; in experiment [8], -0.408; in experiment [9], -0.173; in [10], -0.365; in experiment [11], -0.167; in experiment [12], -0.801. Also, the interaction score in [13] is -0.157; in [14], 0.375; in experiment [15] it was -0.0803; in experiment [16], -0.776.
Take ENSQLEEKISQLKQKNSQLKEEIQQLEYG [P5mS]: the interaction score in experiment [17] was -2.74; in experiment [18], 0.104; in experiment [19], -2.67; in [20], 0.124; in [21], 0.207; in experiment [22], -2.02. Moreover, the interaction score was -2.67 in [23], -0.205 in experiment [24], -2.73 in experiment [25] and -3.02 in [26].
